B1: KLHL14 (parent)
chain: CAVLDDSIYLVGGYSWSMGAYKSS
B2: ZBED3 (parent)
chain: GPGFHAGTSALWRHLRSAHRRELE

Variants of: B1
Experiment: protein stability index of a GFP-peptide fusion (GPS, HEK-293T) (PSI 1-6); higher = more stable
Conditions: c terminus: a fixed tail appended
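Also: lentivirally expressed fusions sorted by FACS into six bins by GFP to DsRed ratio, PSI derived from sequencing read proportions per bin multiplied by bin number.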

Variant	protein stability index
A20D	2.27
A20F	2.88
A20H	2.31
A20K	1.11
A20N	3.33
A20P	1.33
A20Q	3.05
A20R	1.74
A20T	3.02
A20V	2.02
A20W	2.87
A20Y	2.9
Y21A	2.91
Y21D	2.43
Y21E	1.45
Y21F	3.42
Y21G	1.08
Y21H	2.64
Y21I	2.99
Y21K	2.14
Y21L	2.68
Y21M	2.65
Y21N	2.25
Y21P	2.44

Variant	protein stability index
Y21Q	2.35
Y21R	2.45
Y21S	2
Y21T	1.24
Y21V	2.6
K22A	3.59
K22C	1.85
K22D	3.84
K22G	2.66
K22H	3.04
K22I	2.6
K22L	3.43
K22M	4.12
K22N	2.69
K22P	1.79
K22Q	1.44
K22R	3.14
K22T	2.27
K22V	3.73
S23A	2.92
S23C	2.2
S23D	1.96
S23G	1
S23H	1.57

Variant	protein stability index
S23I	2.8
S23K	2.43
S23L	5.74
S23M	2.48
S23N	1.79
S23P	1.58
S23Q	2.73
S23T	2.72
S23Y	1.98
S24A	4.41
S24C	2.32
S24D	1.06
S24E	2.32
S24F	2.96
S24G	1.65
S24I	3.41
S24K	2.36
S24N	2.53
S24Q	2.2
S24R	1.75
S24T	3.12
S24Y	3.04

Variants of: B2
Experiment: as above
Conditions: c terminus: a fixed tail appended

Variant	protein stability index
G1A	2.7
G1C	2.65
G1D	3.87
G1E	3.11
G1F	1.96
G1H	3.15
G1I	2.76
G1K	3.07
G1L	2.52
G1M	3.18
G1N	3.45
G1P	3.04
G1Q	3.51
G1R	3.02
G1S	1.79
G1T	3.33
G1V	2.9
G1W	2.7
G1Y	2.1
P2A	3.48
P2C	1.37
P2D	3.38
P2E	3.53
P2F	1.89

Variant	protein stability index
P2G	3.2
P2H	3.39
P2I	2.8
P2K	3.06
P2L	2.5
P2M	2.53
P2N	3.5
P2Q	4.32
P2S	2.92
P2T	3.01
P2V	2.77
P2W	2.18
P2Y	2.54
G3A	3.22
G3C	3.23
G3D	3.13
G3E	3.67
G3F	1.74
G3H	3.25
G3I	2.5
G3K	3.26
G3L	3.26
G3M	3.16
G3N	3.56

Variant	protein stability index
G3P	3.38
G3Q	2.45
G3R	3.96
G3S	2.9
G3T	3.75
G3V	3.1
G3W	1.96
G3Y	3.36
F4A	3.15
F4C	3.19
F4D	3
F4E	2.83
F4G	3.01
F4H	3.16
F4I	2.99
F4K	3.62
F4L	3.3
F4M	2.68
F4N	2.84
F4P	3.59
F4Q	4.02
F4R	4.36
F4S	3.39
F4T	3.75

Variant	protein stability index
F4V	3
F4W	2.22
F4Y	3.37
H5A	3.33
H5C	3.46
H5D	3.69
H5E	3.63
H5F	2.88
H5G	2.62
H5I	2.15
H5K	2.67
H5L	2.24
H5M	2.82
H5N	3.06
H5P	4.37
H5Q	3.44
H5R	3.02
H5S	2.95
H5T	3.16
H5V	2.75
H5W	2.76
H5Y	2.89
A6C	1.65
A6D	3.52

Variant	protein stability index
A6E	3.04
A6F	1.83
A6G	2.54
A6H	2.12
A6I	2.06
A6K	2.3
A6L	2.24
A6M	2.58
A6N	2
A6P	2.77
A6Q	2.59
A6R	3.08
A6S	2.14
A6T	2.33
A6V	1.85
A6W	1.82
A6Y	2.59
G7A	2.62
G7C	1.75
G7D	3.25
G7E	5.51
G7I	2.31
G7K	2.01
G7L	1.45

Variant	protein stability index
G7M	2.35
G7N	2.69
G7P	2.23
G7Q	2.47
G7R	2
G7S	2.73
G7T	2.21
G7V	2.19
G7W	1.52
G7Y	2.68
T8A	1.75
T8C	2.51
T8D	3.67
T8E	2.48
T8F	1.64
T8G	2.26
T8H	2.4
T8I	2.09
T8K	2.5
T8L	2.52
T8M	2.37
T8N	2.91
T8P	2.88
T8Q	1.98

Variant	protein stability index
T8R	2.37
T8S	2.89
T8V	1.84
T8W	2.23
T8Y	2.37
S9A	2.11
S9C	2
S9D	2.99
S9E	3.25
S9F	2.23
S9G	1.71
S9H	2.53
S9I	1.74
S9K	2.68
S9L	3.28
S9M	2.44
S9N	2.68
S9P	2.08
S9Q	2.96
S9R	3.03
S9T	3.06
S9V	1.92
S9W	2.05
S9Y	3.23

Variant	protein stability index
A10C	2.32
A10D	3.22
A10E	4.86
A10F	2.33
A10G	2.67
A10H	2.63
A10I	1.85
A10K	2
A10L	1.88
A10M	2.02
A10N	2.67
A10P	2.28
A10Q	2.43
A10R	3.4
A10S	2.52
A10T	3.08
A10V	2.6
A10W	2.38
A10Y	2.31
L11A	1.71
L11C	2.41
L11D	3.33
L11E	2.52
L11F	1.7

Variant	protein stability index
L11G	1.74
L11H	3.28
L11I	2.32
L11K	3.32
L11M	2.64
L11N	2.3
L11P	2.23
L11Q	2.54
L11R	3.19
L11S	2.03
L11T	2.16
L11V	1.99
L11W	2.85
L11Y	3.19
W12A	3.38
W12C	1.45
W12D	2.92
W12E	3.17
W12F	2.1
W12G	1.64
W12H	2.16
W12I	2.07
W12K	3.18
W12L	2.24

Variant	protein stability index
W12M	1.84
W12N	2.3
W12P	2.14
W12Q	2.72
W12R	3.35
W12S	2.61
W12T	2.54
W12V	2.44
W12Y	2.63
R13A	2.8
R13C	1.47
R13E	2.14
R13F	1.73
R13G	1.81
R13H	1.98
R13I	1.88
R13K	2.08
R13L	1.79
R13M	1.99
R13N	2.13
R13P	2.12
R13Q	2.72
R13S	1.36
R13T	1.99

Variant	protein stability index
R13V	1.88
R13W	1.93
R13Y	2.1
H14A	2.3
H14C	2.17
H14D	2.13
H14E	2.33
H14F	1.68
H14G	2.76
H14I	1.78
H14K	2.2
H14L	2.62
H14M	1.99
H14N	2.16
H14P	2.1
H14Q	2.51
H14R	2.32
H14S	2.2
H14T	2.28
H14V	2.33
H14W	1.74
H14Y	1.98
L15A	1.93
L15D	1.87
